From patent EP1454989A1 come the findings set out here.

One experiment concerns the target human CD81 (human) (UniProt P60033). Briefly: cell-based or functional assay.
Experiment [1] has as its target HCV E2 glycoprotein of genotype 1a (hepatitis C virus genotype 1a) (UniProt P27958). Briefly: cell-based or functional assay.

The substance JS-81 anti-CD81 monoclonal antibody came in with an inhibition of infection by HCVpp of genotypes 1a and 1b (target cells pre-incubated with antibody at 30 µg/ml) in the experiment with human CD81 (human) of more than 90%. Substance “recombinant GST-fusion polypeptide encompassing the large extra-cellular loop (LEL) of human CD81 (from UniProt P60033 113-201)” yielded an inhibition of infectivity of HCVpp on Huh-7 cells (polypeptide at 4, 8, 16 µg/ml pre-incubated with the pseudo-particles) in experiment [1] of 38 to 54%.
